Each sequence was assayed on Escherichia coli TOP10 (assay: shrunken log2 fold change of peptide-encoding DNA abundance (4.5 h post-induction vs induction); higher = less antimicrobial activity (less host growth inhibition)). Conditions: time post-induction: 4.5 h; library: site-saturation at positions 5, 18, 19, 20.
For RRIRDRPPRLPRPRPRPMNQPRP, the “shrunken log2 fold change” value was -0.334. In the case of RRIRNRPPRLPRPRPRPREAPRP, the “shrunken log2 fold change” value is reported as 0.00436. With RRIRRRPPRLPRPRPRPDVVPRP the “shrunken log2 fold change” value was -0.0225. In the case of RRIRKRPPRLPRPRPRPCGVPRP, the “shrunken log2 fold change” value is reported as 0.143. With RRIRWRPPRLPRPRPRPHAEPRP the “shrunken log2 fold change” value was 0.0375. RRIRERPPRLPRPRPRPWIVPRP was tested, and the “shrunken log2 fold change” value was -0.00567. For RRIRYRPPRLPRPRPRPTTIPRP, the “shrunken log2 fold change” value was -0.769. For RRIRFRPPRLPRPRPRPTLVPRP, the “shrunken log2 fold change” value was -0.141. RRIRSRPPRLPRPRPRPFASPRP was tested, and the “shrunken log2 fold change” value was 0.0202. For RRIRIRPPRLPRPRPRPMMEPRP, the “shrunken log2 fold change” value was -0.599. RRIRPRPPRLPRPRPRPIWTPRP was tested, and the “shrunken log2 fold change” value was -0.262. With RRIRERPPRLPRPRPRPYEKPRP the “shrunken log2 fold change” value was -0.0219. With RRIRARPPRLPRPRPRPCLIPRP the “shrunken log2 fold change” value was -0.191. RRIRERPPRLPRPRPRPRWCPRP was tested, and the “shrunken log2 fold change” value was 0.0485. For RRIRPRPPRLPRPRPRPHWQPRP, the “shrunken log2 fold change” value was 0.358. In the case of RRIRRRPPRLPRPRPRPGNFPRP, the “shrunken log2 fold change” value is reported as 0.155. For RRIRARPPRLPRPRPRPACDPRP, the “shrunken log2 fold change” value was 0.851. With RRIRMRPPRLPRPRPRPIEFPRP the “shrunken log2 fold change” value was 0.103. RRIRNRPPRLPRPRPRPMYSPRP was tested, and the “shrunken log2 fold change” value was -0.479. In the case of RRIRFRPPRLPRPRPRPMGSPRP, the “shrunken log2 fold change” value is reported as -0.22. For RRIRCRPPRLPRPRPRPVHEPRP, the “shrunken log2 fold change” value was -0.073. RRIRKRPPRLPRPRPRPHHEPRP was tested, and the “shrunken log2 fold change” value was -0.0045. RRIRQRPPRLPRPRPRPKNCPRP was tested, and the “shrunken log2 fold change” value was -0.0633. In the case of RRIRVRPPRLPRPRPRPWFEPRP, the “shrunken log2 fold change” value is reported as -0.313. In the case of RRIRWRPPRLPRPRPRPYEWPRP, the “shrunken log2 fold change” value is reported as 0.0229. RRIRLRPPRLPRPRPRPHMAPRP was tested, and the “shrunken log2 fold change” value was 0.0118. In the case of RRIRQRPPRLPRPRPRPNHEPRP, the “shrunken log2 fold change” value is reported as -0.102. In the case of RRIRFRPPRLPRPRPRPDFWPRP, the “shrunken log2 fold change” value is reported as 0.0889. In the case of RRIRIRPPRLPRPRPRPGSGPRP, the “shrunken log2 fold change” value is reported as 0.166. RRIRFRPPRLPRPRPRPSKCPRP was tested, and the “shrunken log2 fold change” value was -0.26. With RRIRDRPPRLPRPRPRPPFVPRP the “shrunken log2 fold change” value was 0.0811. In the case of RRIRMRPPRLPRPRPRPHMAPRP, the “shrunken log2 fold change” value is reported as 0.0168. With RRIRSRPPRLPRPRPRPMAIPRP the “shrunken log2 fold change” value was 4e-05. In the case of RRIRMRPPRLPRPRPRPAFYPRP, the “shrunken log2 fold change” value is reported as -0.0165. For RRIRDRPPRLPRPRPRPPWSPRP, the “shrunken log2 fold change” value was 0.31. In the case of RRIRMRPPRLPRPRPRPMSAPRP, the “shrunken log2 fold change” value is reported as 0.333. With RRIRMRPPRLPRPRPRPPHIPRP the “shrunken log2 fold change” value was -0.0498. For RRIRQRPPRLPRPRPRPDYNPRP, the “shrunken log2 fold change” value was -0.161. For RRIRDRPPRLPRPRPRPTCWPRP, the “shrunken log2 fold change” value was 1.09. For RRIRMRPPRLPRPRPRPHHEPRP, the “shrunken log2 fold change” value was -0.00212. RRIRVRPPRLPRPRPRPQPPPRP was tested, and the “shrunken log2 fold change” value was 0.298. In the case of RRIRKRPPRLPRPRPRPNMKPRP, the “shrunken log2 fold change” value is reported as 0.125. RRIRMRPPRLPRPRPRPVCHPRP was tested, and the “shrunken log2 fold change” value was 0.224. For RRIRQRPPRLPRPRPRPDNTPRP, the “shrunken log2 fold change” value was -0.178. RRIRARPPRLPRPRPRPKNEPRP was tested, and the “shrunken log2 fold change” value was 0.215. In the case of RRIRGRPPRLPRPRPRPMGHPRP, the “shrunken log2 fold change” value is reported as 0.202. With RRIRRRPPRLPRPRPRPTVDPRP the “shrunken log2 fold change” value was 0.615. In the case of RRIRARPPRLPRPRPRPTYSPRP, the “shrunken log2 fold change” value is reported as -0.204. For RRIRYRPPRLPRPRPRPAEAPRP, the “shrunken log2 fold change” value was 0.0062. In the case of RRIRERPPRLPRPRPRPAVIPRP, the “shrunken log2 fold change” value is reported as -0.12. In the case of RRIRGRPPRLPRPRPRPEPEPRP, the “shrunken log2 fold change” value is reported as 1.51. For RRIRRRPPRLPRPRPRPQGEPRP, the “shrunken log2 fold change” value was 0.373. RRIRLRPPRLPRPRPRPAGWPRP was tested, and the “shrunken log2 fold change” value was 0.712. For RRIRNRPPRLPRPRPRPKIFPRP, the “shrunken log2 fold change” value was 0.19. For RRIRCRPPRLPRPRPRPFTYPRP, the “shrunken log2 fold change” value was -0.631. For RRIRYRPPRLPRPRPRPAMVPRP, the “shrunken log2 fold change” value was -0.136. RRIRNRPPRLPRPRPRPANVPRP was tested, and the “shrunken log2 fold change” value was 0.0585. In the case of RRIRCRPPRLPRPRPRPTLYPRP, the “shrunken log2 fold change” value is reported as -0.396. RRIRGRPPRLPRPRPRPWQGPRP was tested, and the “shrunken log2 fold change” value was 0.015. RRIRTRPPRLPRPRPRPWGWPRP was tested, and the “shrunken log2 fold change” value was -0.0131. For RRIRWRPPRLPRPRPRPTMMPRP, the “shrunken log2 fold change” value was 0.113. RRIRFRPPRLPRPRPRPGMRPRP was tested, and the “shrunken log2 fold change” value was 0.44. In the case of RRIRKRPPRLPRPRPRPRYCPRP, the “shrunken log2 fold change” value is reported as -0.142. RRIRWRPPRLPRPRPRPHCEPRP was tested, and the “shrunken log2 fold change” value was -0.262. With RRIRARPPRLPRPRPRPHEFPRP the “shrunken log2 fold change” value was 0.293. For RRIRMRPPRLPRPRPRPRNVPRP, the “shrunken log2 fold change” value was 0.29. With RRIRKRPPRLPRPRPRPGEGPRP the “shrunken log2 fold change” value was 0.0997. For RRIRFRPPRLPRPRPRPLLEPRP, the “shrunken log2 fold change” value was -0.0853. For RRIRFRPPRLPRPRPRPKVQPRP, the “shrunken log2 fold change” value was 0.199. In the case of RRIRTRPPRLPRPRPRPRYIPRP, the “shrunken log2 fold change” value is reported as -0.368. With RRIRMRPPRLPRPRPRPLNSPRP the “shrunken log2 fold change” value was -0.0401. For RRIRKRPPRLPRPRPRPDAMPRP, the “shrunken log2 fold change” value was 0.618. RRIRTRPPRLPRPRPRPCWMPRP was tested, and the “shrunken log2 fold change” value was -0.259. For RRIRMRPPRLPRPRPRPLSTPRP, the “shrunken log2 fold change” value was 0.0164. RRIRQRPPRLPRPRPRPLSFPRP was tested, and the “shrunken log2 fold change” value was -0.415. In the case of RRIRFRPPRLPRPRPRPKMNPRP, the “shrunken log2 fold change” value is reported as -0.345. For RRIRSRPPRLPRPRPRPTNEPRP, the “shrunken log2 fold change” value was 0.308. In the case of RRIRNRPPRLPRPRPRPKECPRP, the “shrunken log2 fold change” value is reported as 0.00801. With RRIRRRPPRLPRPRPRPMVSPRP the “shrunken log2 fold change” value was 0.0678. With RRIRFRPPRLPRPRPRPINFPRP the “shrunken log2 fold change” value was -0.601. With RRIRMRPPRLPRPRPRPWEAPRP the “shrunken log2 fold change” value was -0.033. RRIRQRPPRLPRPRPRPHHYPRP was tested, and the “shrunken log2 fold change” value was -0.617. In the case of RRIRHRPPRLPRPRPRPKGAPRP, the “shrunken log2 fold change” value is reported as -0.011. With RRIRIRPPRLPRPRPRPNVYPRP the “shrunken log2 fold change” value was -0.228. With RRIRCRPPRLPRPRPRPQTAPRP the “shrunken log2 fold change” value was 0.225. RRIRSRPPRLPRPRPRPFSHPRP was tested, and the “shrunken log2 fold change” value was -0.388. In the case of RRIRHRPPRLPRPRPRPCCMPRP, the “shrunken log2 fold change” value is reported as -0.43. In the case of RRIRRRPPRLPRPRPRPIRRPRP, the “shrunken log2 fold change” value is reported as -0.0312. RRIRNRPPRLPRPRPRPEDYPRP was tested, and the “shrunken log2 fold change” value was -0.133. RRIRIRPPRLPRPRPRPNCRPRP was tested, and the “shrunken log2 fold change” value was -0.0156. In the case of RRIRCRPPRLPRPRPRPTPAPRP, the “shrunken log2 fold change” value is reported as 0.933. With RRIRTRPPRLPRPRPRPSMWPRP the “shrunken log2 fold change” value was 0.103. In the case of RRIRLRPPRLPRPRPRPLQCPRP, the “shrunken log2 fold change” value is reported as 0.121. In the case of RRIRHRPPRLPRPRPRPNFGPRP, the “shrunken log2 fold change” value is reported as 0.00709. RRIRSRPPRLPRPRPRPLRVPRP was tested, and the “shrunken log2 fold change” value was 1.29. RRIRARPPRLPRPRPRPGPTPRP was tested, and the “shrunken log2 fold change” value was 0.574. For RRIRTRPPRLPRPRPRPEVFPRP, the “shrunken log2 fold change” value was 0.146. With RRIRDRPPRLPRPRPRPWILPRP the “shrunken log2 fold change” value was -0.201. RRIRLRPPRLPRPRPRPHLDPRP was tested, and the “shrunken log2 fold change” value was -0.0911. For RRIRPRPPRLPRPRPRPGWPPRP, the “shrunken log2 fold change” value was 0.667. For RRIRFRPPRLPRPRPRPMYMPRP, the “shrunken log2 fold change” value was -0.183. With RRIRSRPPRLPRPRPRPINNPRP the “shrunken log2 fold change” value was -0.647. With RRIRRRPPRLPRPRPRPKMDPRP the “shrunken log2 fold change” value was -0.0711. For RRIRDRPPRLPRPRPRPDKYPRP, the “shrunken log2 fold change” value was -0.582. RRIRPRPPRLPRPRPRPISMPRP was tested, and the “shrunken log2 fold change” value was -0.0272. RRIRSRPPRLPRPRPRPYCWPRP was tested, and the “shrunken log2 fold change” value was -0.419. RRIRSRPPRLPRPRPRPHDYPRP was tested, and the “shrunken log2 fold change” value was 0.0635. With RRIRVRPPRLPRPRPRPFVNPRP the “shrunken log2 fold change” value was -0.0619. With RRIRDRPPRLPRPRPRPKFVPRP the “shrunken log2 fold change” value was 0.0202.

— the supplement of paper PMC9112550, “Optimization of the antimicrobial peptide Bac7 by deep mutational scanning” (BMC Biology, 2022)
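Further: peptides expressed intracellularly from a pBAD plasmid library in pooled LB shake-flask culture, induced with 0.3% L-arabinose, DNA abundance read by NGS, three biological replicates, DESeq2 with apeglm shrinkage.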
